The RNAGym collection of RNA variant scans (doi:10.1093/molbev/msab373)

B1: Azoarcus group I ribozyme (parent)
chain: GUGCCUUGCGCCGGGAAACCACGCAAGGGAUGGUGUCAAAUUCGGCGAAACCUAAGCGCCCGCCCGGGCGUAUGGCAACGCCGAGCCAAGCUUCGGCGCCUGCGCCGAUGAAGGUGUAGAGACUAGACGGCACCCACCUAAGGCAAACGCUAUGGUGAAGGCAUAGUCCAGGGAGUGGCGAAAGUCACACAAACCGG

Variants of: B1
Assay: reverse-splicing fitness (ratio to wild type); higher = more active; in vitro selection; Mg2+ level not given
Summary of the method: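 An in vitro group I ribozyme library with randomized positions was T7-transcribed and gel-purified. In triplicate, 10 pmol RNA in EPPS pH 7.5 was reacted with 50 pmoles of a 30-nt RNA substrate for 1 h at 37 °C across several added MgCl2 levels (1–48 mM), then stopped with EDTA. Products were reverse transcribed from a substrate-complementary primer, PCR-amplified and sequenced (HiSeq 4000). Fitness is a variant's read proportion after selection over that before, normalised to wild type.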

| Variant | reverse-splicing fitness |
| --- | --- |
| C82U C150G C169G U176C | 0.0054 |
| C82U C150G C169G U176G | 0.00464 |
| C82U C150G C169G U176A | 0.00631 |
| C82U C169A U176G | 0.00439 |
| C82U C169A U176A | 0.0127 |
| C82U C169A U176C | 0.0154 |
| A111C A120C A145C C150G | 0.0702 |
| A111C A120C A145C C150U | 0.175 |
| A111C A120C A145C C150A | 0.0308 |
| C82U C150A U176G | 0.0218 |
| C82U C150A U176C | 0.0779 |
| C82U C150A U176A | 0.0603 |
| C82U U176G | 0.126 |
| C82U U176A | 0.386 |
| C82U U176C | 0.476 |
| A111C A120C A145G C150A C169U U176C | 0.024 |
| A111C A120C A145G C150A C169U U176G | 0.00728 |
| A111C A120C A145G C150A C169U U176A | 0.0207 |
| C82U C150U C169A U176C | 0.0123 |
| C82U C150U C169A U176A | 0.0154 |
| C82U C150U C169A U176G | 0.00561 |
| C82U A145U C150A C169A U176A | 0.0106 |
| C82U A145U C150A C169A U176C | 0.00744 |
| C82U A145U C150A C169A U176G | 0.00546 |

| Variant | reverse-splicing fitness |
| --- | --- |
| C82U A145G U176G | 0.125 |
| C82U A145G U176C | 0.44 |
| C82U A145G U176A | 0.353 |
| C82U A145C C150U C169G U176G | 0.0047 |
| C82U A145C C150U C169G U176C | 0.00881 |
| C82U A145C C150U C169G U176A | 0.0158 |
| C82U A145G C150G U176C | 0.0584 |
| C82U A145G C150G U176A | 0.0372 |
| C82U A145G C150G U176G | 0.0108 |
| C82U A145U C150G C169G | 0.00717 |
| C82U A145U C150G C169U | 0.00842 |
| C82U A145U C150G C169A | 0.00864 |
| C82U A145G C169U U176G | 0.00391 |
| C82U A145G C169U U176A | 0.0137 |
| C82U A145G C169U U176C | 0.0131 |
| C82U A145U C169G U176C | 0.00956 |
| C82U A145U C169G U176A | 0.00811 |
| C82U A145U C169G U176G | 0.00447 |
| C82U A145U C150G C169A U176A | 0.0105 |
| C82U A145U C150G C169A U176C | 0.00964 |
| C82U A145U C150G C169A U176G | 0.00523 |
| A111C A120C A145G C150U C169A U176C | 0.0144 |
| A111C A120C A145G C150U C169A U176A | 0.014 |
| C82U C150A C169A U176G | 0.00489 |

| Variant | reverse-splicing fitness |
| --- | --- |
| C82U C150A C169A U176C | 0.0149 |
| C82U C150A C169A U176A | 0.019 |
| C82U A145G C150G C169A U176G | 0.00764 |
| C82U A145G C150G C169A U176A | 0.0146 |
| C82U A145G C150G C169A U176C | 0.0125 |
| A111C A120C A145G | 0.614 |
| A111C A120C A145C | 0.556 |
| A111C A120C A145G C150G C169A | 0.009 |
| A111C A120C A145G C150G C169U | 0.0264 |
| A111C A120C A145G C150G C169G | 0.00738 |
| C82U A145C U176C | 0.449 |
| C82U A145C U176G | 0.141 |
| C82U A145C U176A | 0.38 |
| A111C A120C A145C C169A U176A | 0.0126 |
| A111C A120C A145C C169A U176C | 0.00756 |
| A111C A120C A145C C169A U176G | 0.00493 |
| C82U C150G U176C | 0.0477 |
| C82U C150G U176A | 0.0283 |
| C82U C150G U176G | 0.00652 |
| C82U A145U C150A C169G U176A | 0.0104 |
| C82U A145U C150A C169G U176C | 0.00918 |
| C82U A145U C150A C169G U176G | 0.0051 |
| C82U A145C C150U | 0.172 |
| A111C A120C | 0.576 |

| Variant | reverse-splicing fitness |
| --- | --- |
| A111C A120C A145G C150A C169G U176C | 0.0253 |
| A111C A120C A145G C150A C169G U176G | 0.00696 |
| A111C A120C A145G C150A C169G U176A | 0.0148 |
| C82U C150A C169A | 0.0107 |
| C82U C150A C169G | 0.00731 |
| C82U C150A C169U | 0.0105 |
| C82U A145G C150U U176C | 0.372 |
| C82U A145G C150U U176A | 0.315 |
| C82U A145G C150U U176G | 0.0868 |
| C82U A145C C150G C169U U176G | 0.00486 |
| C82U A145C C150G C169U U176C | 0.00785 |
| C82U A145C C150G C169U U176A | 0.00881 |
| A111C A120C A145C C169A | 0.00953 |
| A111C A120C A145C C169G | 0.0105 |
| A111C A120C A145C C169U | 0.17 |
| C82U A145U C169A | 0.00801 |
| C82U A145U C169G | 0.00906 |
| C82U A145U C169U | 0.0139 |
| C82U A145G C150A C169A U176A | 0.0196 |
| C82U A145G C150A C169A U176G | 0.00596 |
| C82U A145G C150A C169A U176C | 0.0216 |
| C82U A145U | 0.626 |
| C82U A145G | 0.63 |
| A111C A120C A145C C150G C169A | 0.00813 |

| Variant | reverse-splicing fitness |
| --- | --- |
| A111C A120C A145C C150G C169G | 0.0064 |
| A111C A120C A145C C150G C169U | 0.0267 |
| C82U A145C C169A U176G | 0.00383 |
| C82U A145C C169A U176C | 0.00633 |
| C82U A145C C169A U176A | 0.00806 |
| C82U A145U C150G C169G U176A | 0.00745 |
| C82U A145U C150G C169G U176G | 0.0049 |
| C82U A145U C150G C169G U176C | 0.00478 |
| A111C A120C A145C C169G U176C | 0.0167 |
| A111C A120C A145C C169G U176A | 0.0217 |
| A111C A120C A145C C169G U176G | 0.00634 |
| A111C A120C A145G C150G C169U U176C | 0.0128 |
| A111C A120C A145G C150G C169U U176G | 0.0071 |
| A111C A120C A145G C150G C169U U176A | 0.0114 |
| C82U A145C C150G C169U | 0.00824 |
| C82U A145G C150A C169U U176A | 0.0137 |
| C82U A145G C150A C169U U176C | 0.0152 |
| C82U A145G C150A C169U U176G | 0.00508 |
| A111C | 0.872 |
| C82U A145G C150U C169A | 0.0113 |
| C82U A145G C150U C169G | 0.0102 |
| C82U A145G C150U C169U | 0.0153 |
| A111C A120C A145C C150A C169G U176G | 0.007 |
| A111C A120C A145C C150A C169G U176C | 0.0146 |

| Variant | reverse-splicing fitness |
| --- | --- |
| A111C A120C A145C C150A C169G U176A | 0.0246 |
| C82U A145C C150U C169U U176G | 0.00478 |
| C82U A145C C150U C169U U176A | 0.0121 |
| C82U A145C C150U C169U U176C | 0.00673 |
| C82U A145C C150G U176G | 0.00905 |
| C82U A145C C150G U176C | 0.0583 |
| C82U A145C C150G U176A | 0.0431 |
| C82U A145U U176A | 0.412 |
| C82U A145U U176G | 0.153 |
| C82U A145U U176C | 0.477 |
| A111C A120C A145G C150A U176A | 0.0428 |
| A111C A120C A145G C150A U176C | 0.0663 |
| A111C A120C A145G C150A U176G | 0.0143 |
| C82U A145U C150U C169U U176A | 0.0133 |
| C82U A145U C150U C169U U176C | 0.0115 |
| C82U A145U C150U C169U U176G | 0.00433 |
| C82U A145G C150U C169U U176C | 0.0134 |
| C82U A145G C150U C169U U176A | 0.0142 |
| C82U A145G C150U C169U U176G | 0.00493 |
| C82U C150A C169G U176C | 0.0184 |
| C82U C150A C169G U176G | 0.00558 |
| C82U C150A C169G U176A | 0.0177 |
| C82U A145U C150A U176A | 0.055 |
| C82U A145U C150A U176G | 0.0221 |

| Variant | reverse-splicing fitness |
| --- | --- |
| C82U A145U C150A U176C | 0.0543 |
| C82U C150G C169U U176C | 0.01 |
| C82U C150G C169U U176A | 0.0076 |
| C82U C150G C169U U176G | 0.0055 |
| A111C A120C A145C C150A C169U | 0.0161 |
| A111C A120C A145C C150A C169A | 0.00839 |
| A111C A120C A145C C150A C169G | 0.0073 |
| C82U A145C C150U C169A | 0.00695 |
| C82U A145C C150U C169U | 0.00874 |
| C82U A145C C150U C169G | 0.00634 |
| C82U A145G C150U C169A U176A | 0.0158 |
| C82U A145G C150U C169A U176C | 0.0136 |
| C82U A145G C150U C169A U176G | 0.00522 |
| A111C A120C A145G C150G | 0.0633 |
| A111C A120C A145G C150U | 0.462 |
| A111C A120C A145G C150A | 0.0979 |
| C82U A145C C169A | 0.00714 |
| C82U A145C C169U | 0.0123 |
| C82U A145C C169G | 0.00966 |
| C82U A145G C150A | 0.103 |
| C82U A145G C150U | 0.527 |
| C82U A145G C150G | 0.0812 |
| A111C A120C A145G C150A C169A | 0.0101 |
